The values below come from paper PMC2138200.

Values joined by “and” are separate entries in the source; they are usually repeats but may differ in a detail not shown here. Equal entries are not always repeated.

For this test, the target named is p53, Gal4 fusion of the two-hybrid control plasmid pM53. As to the kind of experiment: two-hybrid.

Take “SV-40 large T, VP16 fusion of the two-hybrid control plasmid pV-T (natural protein)”: the CAT protein of the two-hybrid reporter is 186 pg and 251 pg.
